{"source": "patent US20060069055", "experiment_in_all_cases": "EMSA", "key": {"[1]": {"biological_target": "T1, NF-kB p50/p50 homodimer (Homo sapiens) (UniProt P19838)", "T1 sequence": "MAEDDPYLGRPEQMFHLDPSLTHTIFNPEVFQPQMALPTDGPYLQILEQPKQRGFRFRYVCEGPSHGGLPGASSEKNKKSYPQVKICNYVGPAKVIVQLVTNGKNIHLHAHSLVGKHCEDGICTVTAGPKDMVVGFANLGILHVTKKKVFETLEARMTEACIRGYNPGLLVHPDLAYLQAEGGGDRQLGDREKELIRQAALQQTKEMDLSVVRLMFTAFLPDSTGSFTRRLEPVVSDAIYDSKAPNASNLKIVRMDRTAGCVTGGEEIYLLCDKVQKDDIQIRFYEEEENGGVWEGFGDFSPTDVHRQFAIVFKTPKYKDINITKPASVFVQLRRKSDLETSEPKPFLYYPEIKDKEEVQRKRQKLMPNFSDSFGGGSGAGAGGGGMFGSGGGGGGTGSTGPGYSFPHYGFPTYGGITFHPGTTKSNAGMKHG", "conditions": "score 100 = less than 50% competition at any ratio tested"}, "[2]": {"biological_target": "NF-kB p65/p50 heterodimer (Homo sapiens) (UniProt Q04206+P19838)", "sequence (Q04206 whole entry, one chain of several)": "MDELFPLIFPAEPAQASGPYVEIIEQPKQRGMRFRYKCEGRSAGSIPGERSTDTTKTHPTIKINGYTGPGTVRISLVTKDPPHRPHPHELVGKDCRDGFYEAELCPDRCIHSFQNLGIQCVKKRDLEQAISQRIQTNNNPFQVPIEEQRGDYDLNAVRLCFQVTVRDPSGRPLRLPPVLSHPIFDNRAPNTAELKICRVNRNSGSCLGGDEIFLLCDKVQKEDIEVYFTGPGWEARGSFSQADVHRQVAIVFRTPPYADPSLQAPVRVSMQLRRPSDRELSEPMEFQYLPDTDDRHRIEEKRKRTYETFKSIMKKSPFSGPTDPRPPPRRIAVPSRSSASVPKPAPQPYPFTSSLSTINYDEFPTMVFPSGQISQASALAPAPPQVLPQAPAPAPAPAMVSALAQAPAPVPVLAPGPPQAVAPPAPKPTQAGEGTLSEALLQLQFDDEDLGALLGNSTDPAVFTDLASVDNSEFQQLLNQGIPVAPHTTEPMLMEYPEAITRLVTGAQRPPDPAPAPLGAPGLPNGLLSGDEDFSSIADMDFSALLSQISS", "conditions": "50% competition not reached; same for p50/p50"}, "E2F": {"system": "E2F"}}}
{"sequence": "AGTTGAGACTTTCGCAGGC (double strand) [decoy 159 G-Z]", "values": [{"measurement": "IC50 (fold molar excess)", "setting": "[1]", "value": "> 100"}, {"measurement": "IC50", "setting": "[2]", "value": 100, "unit": "score"}]}
{"sequence": "CTAGATTTCCCGCG (double strand) [E2F reference decoy]", "values": [{"measurement": "binding signal (% competition at 10-fold excess)", "setting": "E2F; 40% at 40-fold excess", "value": 7}]}
{"sequence": "CTAGATTTCCCGCGGATC (double strand) [E2F novel decoy]", "values": [{"measurement": "binding signal (% competition at 10-fold excess)", "setting": "E2F; 90% at 40-fold excess", "value": "> 60"}]}
